Experimental findings from PMC9966725, “Preclinical Evaluation of a Lead Specific Chelator (PSC) Conjugated to Radiopeptides for ^203Pb and ^212Pb-Based Theranostics” (Pharmaceutics, 2023) are described below.

Data set [1] can be described thus: in vivo. Details: species or system mice. To be noted: female, athymic nude, mouse, total radioactivity; for tissue uptake at 1 h: iv, 74 kBq. As for the experimental part:
(§1) Biodistribution of [^212Pb]Pb-PSC-PEG-T and progeny ^212Bi^3+ was determined in two animal models, including female naïve CD-1Elite mice and athymic mice bearing AR42J tumor xenografts. SSTR2-positve AR42J cells were cultured in 10% Minimum Essential Medium (MEM) supplemented with 10% fetal bovine serum (FBS), 100 units mL^−1 penicillin, and 100 units mL^−1 streptomycin 37 °C in a humidified atmosphere (5% CO2). All animal studies were performed in accordance with the Guide for the Care and Use of Laboratory Animals, according to protocols approved by the University of Iowa Animal Care and Use Committee (protocol#1122453 approved on 16 February 2022). Xenograft of AR42J tumor was developed by subcutaneous (s.c.) injection of 1 × 10^6 cells at the left shoulder of female athymic nude mice. [^212Pb]Pb-PSC-PEG-T was radiolabeled and purified as described above, and kept at room temperature away from light for 3 h before injection, to allow progeny ^212Bi to approach equilibrium before injection. Upon assay, 74 kBq [^212Pb]Pb-PSC-PEG-T (peptide mass = 5–10 pmole) were injected via tail vein (n = 2–3). Animals were euthanized at designated time points (1, 5, 24 h for naïve CD-1 mice; 1, 4 h for AR42J-bearing mice). Organs of interest and tumors were collected, rinsed, and weighed. Radioactivity of ^212Pb and ^212Bi in each sample was measured on an automated gamma counter by 238 keV and 583 keV gamma peaks, respectively. ^212Bi was purified from the generator eluate on RE2 resin and collected in pH = 6 sodium acetate as described above. Biodistribution of free ^212Bi in normal organs was determined at 2 h post injection of 74 kBq ^212Bi in naïve female CD-1 Elite mice (n = 3). Radioactivity in samples was decay corrected and data were expressed as percent injected dose per gram of tissue (%ID/g). SPECT imaging of [^203Pb]Pb-PSC-PEG-T and [^212Pb]Pb-PSC-PEG-T in female athymic nude mice bearing AR42J xenograft (n = 2) was conducted on Bioemtech Gamma-Eye Imaging system (Bioemtech, Athens, Greece) with 30–500 keV dynamic range and 1.9 mm spatial resolution. Whole body 2D-SPECT imaging of [^203Pb]Pb-PSC-PEG-T and [^212Pb]Pb-PSC-PEG-T were collected at 3 h and 24 h (n = 2) post injection of 1.8 MBq [^203Pb]Pb-PSC-PEG-T (52 MBq nmole^−1) and 3.7 MBq [^212Pb]Pb-PSC-PEG-T (20 MBq nmole^−1). SPECT images were generated by acquiring ten 30 s projections. Imaging data were reconstructed and normalized to percent of injected dose (%ID) in tumor and kidneys based on region of interest (ROI) analysis on VISUAL-Eyes software (Bioemtech, Athens, Greece). Animals were euthanized after conclusion of the study at 24 h post injection. Tumor xenografts and organs of interest were collected and weighed. Radioactivity of ^203Pb or ^212Pb was determined on automated gamma counter and normalized to %ID/g.

Data set [2] can be described thus: In vivo biodistribution in naïve tumor-free CD-1 Elite mice. To be noted: female, mouse, iv, 74 kBq. As for the experimental part:
as §1

Data set [3] can be described thus: Stability of radiopeptide in saline, radio-HPLC. Format: physicochemical. To be noted: 24 h storage in saline, C18, fractions counted on gamma counter. As for the experimental part: Using [^203Pb]Pb-PSC-PEG-T surrogate, radiochemical stability of [^203Pb]Pb-PSC-PEG-T in saline was monitored for 72 h. Similarly, single species of [^212Bi]Bi-PSC-PEG-T in saline were also monitored for 5 h (five half-lives of ^212Bi). [^203Pb]Pb-PSC-PEG-T and [^212Bi]Bi-PSC-PEG-T were radiolabeled and purified on Sep-Pak® C18 SPE columns as previously described. Next, 7.4 MBq mL^−1 of purified [^203Pb]Pb-PSC-PEG-T and [^212Bi]Bi-PSC-PEG-T were stored in saline supplemented with 5% EtOH and 1 mg mL^−1 sodium ascorbate for 72 h and 5 h, respectively, followed by analysis of radiochemical purity by radio-iTLC method. Then, radiochemical stability of [^212Pb]Pb-PSC-PEG-T and progeny [^212Bi]Bi-PSC-PEG-T were determined by radio-iTLC after storage of 37 MBq mL^−1 radiolabeled [^212Pb]Pb-PSC-PEG-T in saline for 24 h, and further confirmed by radio-HPLC analysis. In human serum, radiochemical stability of [^212Pb]Pb-PSC-PEG-T and progeny [^212Bi]Bi-PSC-PEG-T were determined after incubation of 3.7 MBq [^212Pb]Pb-PSC-PEG-T in 1 mL human serum at 37 °C for 24 h. In addition, metabolic stability of Pb-PSC-PEG-T radiopeptide in serum was determined by radio-HPLC after incubating [^203Pb]Pb-PSC-PEG-T surrogate in human serum for 55 h (five half-lives of ^212Pb). […] The supernatant was collected and analyzed on radio-HPLC. […]

Data set [4] can be described thus: Radiochemical stability of radiometal complex in saline, radio-iTLC. In kind it is physicochemical. To be noted: for radiochemical purity of progeny: progeny of 37 MBq mL^-1 [^212Pb]Pb-PSC-PEG-T, 24 h in saline at room temperature; for radiochemical purity: single species, 7.4 MBq mL^-1, n = 2. As for the experimental part:
Using [^203Pb]Pb-PSC-PEG-T surrogate, radiochemical stability of [^203Pb]Pb-PSC-PEG-T in saline was monitored for 72 h. Similarly, single species of [^212Bi]Bi-PSC-PEG-T in saline were also monitored for 5 h (five half-lives of ^212Bi). [^203Pb]Pb-PSC-PEG-T and [^212Bi]Bi-PSC-PEG-T were radiolabeled and purified on Sep-Pak® C18 SPE columns as previously described. Next, 7.4 MBq mL^−1 of purified [^203Pb]Pb-PSC-PEG-T and [^212Bi]Bi-PSC-PEG-T were stored in saline supplemented with 5% EtOH and 1 mg mL^−1 sodium ascorbate for 72 h and 5 h, respectively, followed by analysis of radiochemical purity by radio-iTLC method. Then, radiochemical stability of [^212Pb]Pb-PSC-PEG-T and progeny [^212Bi]Bi-PSC-PEG-T were determined by radio-iTLC after storage of 37 MBq mL^−1 radiolabeled [^212Pb]Pb-PSC-PEG-T in saline for 24 h, and further confirmed by radio-HPLC analysis. In human serum, radiochemical stability of [^212Pb]Pb-PSC-PEG-T and progeny [^212Bi]Bi-PSC-PEG-T were determined after incubation of 3.7 MBq [^212Pb]Pb-PSC-PEG-T in 1 mL human serum at 37 °C for 24 h. In addition, metabolic stability of Pb-PSC-PEG-T radiopeptide in serum was determined by radio-HPLC after incubating [^203Pb]Pb-PSC-PEG-T surrogate in human serum for 55 h (five half-lives of ^212Pb). Following the incubation, serum protein was precipitated in ice-cold methanol (1:1.5 v/v) for 10 min, followed by centrifugation at 10,000× g for 10 min. The supernatant was collected and analyzed on radio-HPLC.
In radio-iTLC analysis, 0.1 M NaOAc with 1 mM DTPA was used as mobile phase for ^203Pb, ^212Pb, ^212Bi. Citric acid (0.1 M) was used as mobile phase for ^68Ga. Upon radio-iTLC analysis, 2 µL aliquot sample was spotted on the radio-iTLC strips (2 × 10 cm) and developed in the mobile phase. Radioactivity of ^203Pb and ^212Pb was measured on NaI(Tl) gamma spectroscope using 279 keV and 238 keV gamma peaks, respectively. Radioactivity of ^212Bi on radio-iTLC was measured on the Ludlum Model 3030 α-particle counter. Radio-HPLC analysis was conducted on Agilent 1260 (Agilent, Santa Clara, CA, USA). Binary mobile phases were applied to run 5–60% phase B (acetonitrile) over phase A (0.1% TFA in water) over 10 min on ZORBAX RR Eclipse XDB-C18 column (4.6 × 150 mm, 5 µm). Radioactivity of ^203Pb was measured on flow-through 105S-1 single channel radiation detector (Corroll & Ramsey, Fort Collins, CO, USA). To measure ^212Pb and ^212Bi activity on radio-HPLC, eluate was collected every 10 s on a HPLC fraction collector. Radioactivity of ^212Pb and ^212Bi in each collected eluate was measured on Cobra II automated gamma counter using 238 keV and 583 keV gamma peaks immediately after collection.

In data set [5] the test system is SSTR2-positive AR42J xenografts. As to the kind of experiment: in vivo. To be noted: female, athymic nude, mouse, iv, 74 kBq, 1 h. Details: species or system mice. As to the method: as §1
Where [6] appears, read: total radioactivity, accumulation in kidneys.
[7] abbreviates: total radioactivity, accumulation in pancreas.

Regarding `C[C@@H](O)[C@@H]1NC(=O)[C@H](CCCCN)NC(=O)[C@@H](Cc2c[nH]c3ccccc23)NC(=O)[C@H](Cc2ccc(O)cc2)NC(=O)[C@@H](NC(=O)[C@@H](Cc2ccccc2)NC(=O)CCOCCOCCNC(=O)CN2CCN(CC(=O)O)CCN(CC(N)=O)CCN(CC(=O)O)CC2)CSSC[C@@H](C(=O)N[C@H](CO)[C@@H](C)O)NC1=O` [[^203Pb]Pb-PSC-PEG-T, metal not drawn], the tissue uptake (usually the share of the injected amount in each gram of the tissue) at 24 h in data set [1] (activity in lungs) was 0.6 %ID/g. Moreover, in data set [1] (kidneys uptake (SPECT ROI)), the tissue uptake dose at 3 h is 8.3 %ID and the tissue uptake dose at 24 h is 0.8 %ID. Moreover, in data set [1] (tumor uptake (SPECT ROI)), the tissue uptake dose at 3 h is 1.8 %ID and the tissue uptake dose at 24 h turned out to be 1.5 %ID.

In the case of `C[C@@H](O)[C@@H]1NC(=O)[C@H](CCCCN)NC(=O)[C@@H](Cc2c[nH]c3ccccc23)NC(=O)[C@H](Cc2ccc(O)cc2)NC(=O)[C@@H](NC(=O)[C@@H](Cc2ccccc2)NC(=O)CCOCCOCCNC(=O)CN2CCN(CC(=O)O)CCN(CC(N)=O)CCN(CC(=O)O)CC2)CSSC[C@@H](C(=O)N[C@H](CO)[C@@H](C)O)NC1=O` [[^212Pb]Pb-PSC-PEG-T, metal not drawn], the tissue uptake at 1 h in data set [2] (setting [6]) was 47.1 ± 7.9 %ID/g; in data set [2] (setting [7]), 5.2 %ID/g; in data set [2] (total radioactivity, activity remained in blood), less than 0.2 %ID/g. Also, the tissue uptake at 5 h came out at 26.6 %ID/g in data set [2] (setting [6]) and 2 %ID/g in data set [2] (setting [7]). In data set [2] (total radioactivity, residual activity in kidneys), the tissue uptake at 24 h was 2.7 ± 1.2 %ID/g.

As to `C[C@@H](O)[C@@H]1NC(=O)[C@H](CCCCN)NC(=O)[C@@H](Cc2c[nH]c3ccccc23)NC(=O)[C@H](Cc2ccc(O)cc2)NC(=O)[C@@H](NC(=O)[C@@H](Cc2ccccc2)NC(=O)CCOCCOCCNC(=O)CN2CCN(CC(=O)O)CCN(CC(N)=O)CCN(CC(=O)O)CC2)CSSC[C@@H](C(=O)N[C@H](CO)[C@@H](C)O)NC1=O` [[^212Bi]Bi-PSC-PEG-T] [metal not drawn], the “radiochemical purity (radiometal remained incorporated as radiopeptide)” value in data set [3] was more than 95%. Besides, the “radiochemical purity of progeny” value in data set [4] (1 µM PSC-PEG-T) is reported as 91.8%; in data set [4] (3 µM PSC-PEG-T), 94.8%; in data set [4] (5 µM PSC-PEG-T), 97.1%. Also, the radiochemical purity in data set [4] (1 h incubation in saline (5% EtOH, 1 mg mL^-1 sodium ascorbate), 1 µM PSC-PEG-T precursor) is 94.1%; in data set [4] (2 h incubation in saline (5% EtOH, 1 mg mL^-1 sodium ascorbate), 1 µM PSC-PEG-T precursor) it was 96.1%; in data set [4] (3 h incubation in saline (5% EtOH, 1 mg mL^-1 sodium ascorbate), 1 µM PSC-PEG-T precursor), 92.4%; in data set [4] (5 h incubation in saline (5% EtOH, 1 mg mL^-1 sodium ascorbate), 1 µM PSC-PEG-T precursor), 92.3%; in data set [4] (5 h incubation in saline (5% EtOH, 1 mg mL^-1 sodium ascorbate), 5 µM PSC-PEG-T precursor), more than 98%. Besides, the accumulation in kidneys was 45.9 ± 3.7 %ID/g in data set [2] (1 h) and 29.8 %ID/g in data set [2] (5 h). The accumulation in pancreas in data set [2] (1 h) was 7.3 %ID/g; in data set [2] (5 h), 3.5 %ID/g. Moreover, the “activity remained in blood” value in data set [2] (1 h) is “less than 0.2 %ID/g”. Besides, the “residual activity in kidneys” value in data set [2] (24 h) amounted to 3.1 ± 1.4 %ID/g. Also, in data set [5], the “accumulation in adrenal glands” value was 8.1 %ID/g. Moreover, the accumulation in liver in data set [5] was determined as 2.1 %ID/g. Also, in data set [5], the accumulation in spleen is 1.4 %ID/g.

In the case of `C[C@@H](O)[C@@H]1NC(=O)[C@H](CCCCN)NC(=O)[C@@H](Cc2c[nH]c3ccccc23)NC(=O)[C@H](Cc2ccc(O)cc2)NC(=O)[C@@H](NC(=O)[C@@H](Cc2ccccc2)NC(=O)CCOCCOCCNC(=O)CN2CCN(CC(=O)O)CCN(CC(N)=O)CCN(CC(=O)O)CC2)CSSC[C@@H](C(=O)N[C@H](CO)[C@@H](C)O)NC1=O` [[^203Pb]Pb-PSC-PEG-T] [metal not drawn], the “free ^203Pb” value in data set [4] (72 h storage in saline with 5% EtOH and 1 mg mL^-1 sodium ascorbate, 7.4 MBq mL^-1, 1 and 5 µM precursor, n = 2) is listed as “less than 1%”. In data set [4] (72 h storage in saline with 5% EtOH and 1 mg mL^-1 sodium ascorbate, 7.4 MBq mL^-1, regardless of PSC-PEG-T precursor concentration (1 and 5 µM), n = 2), the “^203Pb remained in PSC-PEG-T” value is “More than 99%”.

Consider `C[C@@H](O)[C@@H]1NC(=O)[C@H](CCCCN)NC(=O)[C@@H](Cc2c[nH]c3ccccc23)NC(=O)[C@H](Cc2ccc(O)cc2)NC(=O)[C@@H](NC(=O)[C@@H](Cc2ccccc2)NC(=O)CCOCCOCCNC(=O)CN2CCN(CC(=O)O)CCN(CC(N)=O)CCN(CC(=O)O)CC2)CSSC[C@@H](C(=O)N[C@H](CO)[C@@H](C)O)NC1=O` [[^212Bi]Bi-PSC-PEG-T, metal not drawn], for which the tissue uptake at 1 h in data set [1] (accumulation in bones) turned out to be 2.5 %ID/g; in data set [1] (accumulation in kidneys), 38.1 %ID/g.
